T1: recombinant proclotting enzyme of Japanese horseshoe crab (His-tag free)
T1 chain: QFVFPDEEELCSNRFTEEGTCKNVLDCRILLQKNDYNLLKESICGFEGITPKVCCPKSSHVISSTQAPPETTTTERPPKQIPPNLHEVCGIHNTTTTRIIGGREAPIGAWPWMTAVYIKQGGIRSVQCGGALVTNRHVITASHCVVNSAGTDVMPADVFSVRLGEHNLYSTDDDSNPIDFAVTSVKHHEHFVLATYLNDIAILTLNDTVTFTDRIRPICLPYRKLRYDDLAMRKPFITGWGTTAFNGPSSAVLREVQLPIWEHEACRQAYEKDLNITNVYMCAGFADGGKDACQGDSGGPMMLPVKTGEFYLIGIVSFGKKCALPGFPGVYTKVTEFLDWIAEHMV


Target: T1, recombinant proclotting enzyme of …

Row | Protein | rate of increase in the absorbance at 405 nm (absorbance change rate), proclotting enzyme-activating capacity
1 | His-tag-free recombinant factor C of Japanese horseshoe crab Tachypleus tridentatus (protein) RGVDLGLCDETRFECKCGDPGYVFNVPMKQCTYFYRWRPYCKPCDDLEAKDICPKYKRCQECKAGLDSCVTCPPNKYGTWCSGECQCKNGGICDQRTGACTCRDRYEGAHCEILKGCPLLPSDSQVQEVRNPPDNPQTIDYSCSPGFKLKGVARISCLPNGQWSSFPPKCIRECAKVSSPEHGKVNAPSGNMIEGATLRFSCDSPYYLIGQETLTCQGNGQWSGQIPQCKKLVFCPDLDPVNHAEHQVKIGVEQKYGQFPQGTEVTYTCSGNYFLMGFNTLKCNPDGSWSGSQPSCVKVADREVDCDSKAVDFLDDVGEPVRIHCPAGCSLTAGTVWGTAIYHELSSVCRAAIHAGKLPNSGGAVHVVNNGPYSDFLGSDLNGIKSEELKSLARSFRFDYVSSSTAGRSGCPDGWFEVEENCVYVTSKQRAWERAQGVCTNMAARLAVLDKDLIPSSLTETLRGKGLTTTWIGLHRLDAEKPFVWELMDRSNVVLNDNLTFWASGEPGNETNCVYLDIRDQLQPVWKTKSCFQPSSFACMMDLSDRNKAKCDDPGPLENGHATLHGQSIDGFYAGSSIRYSCEVLHYLSGTETVTCTTNGTWSAPKPRCIKVITCQNPPVPSYGSVEIKPPSRTNSISRVGSPFLRLPRLPLPLARAAKPPPKPRSSQPSTVDLASKVKLPEGHYRVGSRAIYTCESRYYELLGSQGRRCDSNGNWSGRPASCIPVCGRSDSPRSPFIWNGNSTEIGQWPWQAGISRWLADHNMWFLQCGGSLLNEKWIVTAAHCVTYSATAEIIDPSQFKIYLGKYYRDDSRDDDYVQVREALEIHVNPNYDPGNLNFDIALIQLKTPVTLTTRVQPICLPTDITTREHLKEGTLAVVTGWGLNENNTYSEMIQQAVLPVVAASTCEEGYKEADLPLTVTENMFCAGYKKGRYDACSGDSGGPLVFADDSRTERRWVLEGIVSWGSPSGCGKANQYGGFTKVNVFLSWIRQFI | the His-tag-free factor C showed a remarkable proclotting enzyme-activating capacity irrespective of whether it was obtained by the viral method or by the stably expressing cell line method
2 | His-tag-attached factor C (factor C of Japanese horseshoe crab of SEQ ID NO:2 with a 6xHis-tag at the C-terminus) (protein) RGVDLGLCDETRFECKCGDPGYVFNVPMKQCTYFYRWRPYCKPCDDLEAKDICPKYKRCQECKAGLDSCVTCPPNKYGTWCSGECQCKNGGICDQRTGACTCRDRYEGAHCEILKGCPLLPSDSQVQEVRNPPDNPQTIDYSCSPGFKLKGVARISCLPNGQWSSFPPKCIRECAKVSSPEHGKVNAPSGNMIEGATLRFSCDSPYYLIGQETLTCQGNGQWSGQIPQCKKLVFCPDLDPVNHAEHQVKIGVEQKYGQFPQGTEVTYTCSGNYFLMGFNTLKCNPDGSWSGSQPSCVKVADREVDCDSKAVDFLDDVGEPVRIHCPAGCSLTAGTVWGTAIYHELSSVCRAAIHAGKLPNSGGAVHVVNNGPYSDFLGSDLNGIKSEELKSLARSFRFDYVSSSTAGRSGCPDGWFEVEENCVYVTSKQRAWERAQGVCTNMAARLAVLDKDLIPSSLTETLRGKGLTTTWIGLHRLDAEKPFVWELMDRSNVVLNDNLTFWASGEPGNETNCVYLDIRDQLQPVWKTKSCFQPSSFACMMDLSDRNKAKCDDPGPLENGHATLHGQSIDGFYAGSSIRYSCEVLHYLSGTETVTCTTNGTWSAPKPRCIKVITCQNPPVPSYGSVEIKPPSRTNSISRVGSPFLRLPRLPLPLARAAKPPPKPRSSQPSTVDLASKVKLPEGHYRVGSRAIYTCESRYYELLGSQGRRCDSNGNWSGRPASCIPVCGRSDSPRSPFIWNGNSTEIGQWPWQAGISRWLADHNMWFLQCGGSLLNEKWIVTAAHCVTYSATAEIIDPSQFKIYLGKYYRDDSRDDDYVQVREALEIHVNPNYDPGNLNFDIALIQLKTPVTLTTRVQPICLPTDITTREHLKEGTLAVVTGWGLNENNTYSEMIQQAVLPVVAASTCEEGYKEADLPLTVTENMFCAGYKKGRYDACSGDSGGPLVFADDSRTERRWVLEGIVSWGSPSGCGKANQYGGFTKVNVFLSWIRQFIHHHHHH | activation of the proclotting enzyme was not observed or hardly observed in the His-tag-attached factor C solution containing the equal amount of factor C (0.7 µL), and even in the solution containing about 7 times the amount of factor C (5 µL)

Reference: US20180259527
